Reference: patent publication US20260049138A1 (Chugai, published 2026)
Residue numbers refer to the chain shown, from its start. Names and notes keep the numbering of the source.

B1: CE115HA000 Y58K one-arm antibody (antibody, human IgG1, kappa, L234A L235A, N297A, name in Kabat numbering)
heavy: QVQLVESGGGVVQPGRSLRLSCAASGFTFSNAWMHWVRQAPGKGLEWVAQIKAKSNNYATKYAESVKGRFTISRDDSKNSLYLQMNSLKTEDTAVYYCRYVHYGAYYGVDAWGQGTTVTVSSASTKGPSVFPLAPSSKSTSGGTAALGCLVKDYFPEPVTVSWNSGALTSGVHTFPAVLQSSGLYSLSSVVTVPSSSLGTQTYICNVNHKPSNTKVDKKVEPKSCDKTHTCPPCPAPEAAGGPSVFLFPPKPKDTLMISRTPEVTCVVVDVSHEDPEVKFNWYVDGVEVHNAKTKPREEQYASTYRVVSVLTVLHQDWLNGKEYKCKVSNKALPAPIEKTISKAKGQPREPQVYTLPPSRCELTKNQVSLSCAVKGFYPSDIAVEWESNGQPENNYKTTPPVLDSDGSFFLVSKLTVDKSRWQQGNVFSCSVMHEALHNHYTQKSLSLSPDYKDDDDK
chain: EPKSSDKTHTCPPCPAPELLGGPSVFLFPPKPKDTLMISRTPEVTCVVVDVSHEDPEVKFNWYVDGVEVHNAKTKPREEQYNSTYRVVSVLTVLHQDWLNGKEYKCKVSNKALPAPIEKTISKAKGQPREPQVCTLPPSRDELTKNQVSLWCLVKGFYPSDIAVEWESNGQPENNYKTTPPVLDSDGSFFLYSKLTVDKSRWQQGNVFSCSVMHEALHNRYTQKSLSLSP
light: DIVMTQSPLSLPVTPGEPASISCRSSQSLVHSNRNTYLHWYQQKPGQAPRLLIYKVSNRFSGVPDRFSGSGSGTDFTLKISRVEAEDVGVYYCGQGTQVPYTFGQGTKLEIKRTVAAPSVFIFPPSDEQLKSGTASVVCLLNNFYPREAKVQWKVDNALQSGNSQESVTEQDSKDSTYSLSSTLTLSKADYEKHKVYACEVTHQGLSSPVTKSFNRGEC
B2: CE115HA000 Y97S one-arm antibody (antibody, human IgG1, kappa, L234A L235A, N297A, name in Kabat numbering)
heavy: B1 heavy with K61Y, Y103S
chain: B1 chain
light: B1 light
B3: CE115HA000 Y59E one-arm antibody (antibody, human IgG1, kappa, L234A L235A, N297A, name in Kabat numbering)
heavy: B1 heavy with K61Y, Y62E
chain: B1 chain
light: B1 light
B4: CE115HA000 Y100K one-arm antibody (antibody, human IgG1, kappa, L234A L235A, N297A, name in Kabat numbering)
heavy: B1 heavy with K61Y, Y106K
chain: B1 chain
light: B1 light
B5: CE115HA000 Y100Q one-arm antibody (antibody, human IgG1, kappa, L234A L235A, N297A, name in Kabat numbering)
heavy: B1 heavy with K61Y, Y106Q
chain: B1 chain
light: B1 light
B6: CE115HA000 Y100aA one-arm antibody (antibody, human IgG1, kappa, L234A L235A, N297A, name in Kabat numbering)
heavy: B1 heavy with K61Y, Y107A
chain: B1 chain
light: B1 light
B7: CE115HA000 Y59S one-arm antibody (antibody, human IgG1, kappa, L234A L235A, N297A, name in Kabat numbering)
heavy: B1 heavy with K61Y, Y62S
chain: B1 chain
light: B1 light
B8: CE115HA000 Y97D one-arm antibody (antibody, human IgG1, kappa, L234A L235A, N297A, name in Kabat numbering)
heavy: B1 heavy with K61Y, Y103D
chain: B1 chain
light: B1 light
B9: CE115HA000 Y59D one-arm antibody (antibody, human IgG1, kappa, L234A L235A, N297A, name in Kabat numbering)
heavy: B1 heavy with K61Y, Y62D
chain: B1 chain
light: B1 light
B10: CE115HA000 Y97R one-arm antibody (antibody, human IgG1, kappa, L234A L235A, N297A, name in Kabat numbering)
heavy: B1 heavy with K61Y, Y103R
chain: B1 chain
light: B1 light
B11: CE115HA000 Y100aL one-arm antibody (antibody, human IgG1, kappa, L234A L235A, N297A, name in Kabat numbering)
heavy: B1 heavy with K61Y, Y107L
chain: B1 chain
light: B1 light
B12: CE115HA000 Y100S one-arm antibody (antibody, human IgG1, kappa, L234A L235A, N297A, name in Kabat numbering)
heavy: B1 heavy with K61Y, Y106S
chain: B1 chain
light: B1 light
B13: CE115HA000 Y100aG one-arm antibody (antibody, human IgG1, kappa, L234A L235A, N297A, name in Kabat numbering)
heavy: B1 heavy with K61Y, Y107G
chain: B1 chain
light: B1 light
B14: CE115HA000 Y100P one-arm antibody (antibody, human IgG1, kappa, L234A L235A, N297A, name in Kabat numbering)
heavy: B1 heavy with K61Y, Y106P
chain: B1 chain
light: B1 light
B15: CE115HA000 Y100D one-arm antibody (antibody, human IgG1, kappa, L234A L235A, N297A, name in Kabat numbering)
heavy: B1 heavy with K61Y, Y106D
chain: B1 chain
light: B1 light
B16: CE115HA000 Y100aK one-arm antibody (antibody, human IgG1, kappa, L234A L235A, N297A, name in Kabat numbering)
heavy: B1 heavy with K61Y, Y107K
chain: B1 chain
light: B1 light
B17: CE115HA000 Y100A one-arm antibody (antibody, human IgG1, kappa, L234A L235A, N297A, name in Kabat numbering)
heavy: B1 heavy with K61Y, Y106A
chain: B1 chain
light: B1 light
B18: CE115HA000 Y100L one-arm antibody (antibody, human IgG1, kappa, L234A L235A, N297A, name in Kabat numbering)
heavy: B1 heavy with K61Y, Y106L
chain: B1 chain
light: B1 light
B19: CE115HA000 Y58S one-arm antibody (antibody, human IgG1, kappa, L234A L235A, N297A, name in Kabat numbering)
heavy: B1 heavy with K61S
chain: B1 chain
light: B1 light
B20: CE115HA000 Y58L one-arm antibody (antibody, human IgG1, kappa, L234A L235A, N297A, name in Kabat numbering)
heavy: B1 heavy with K61L
chain: B1 chain
light: B1 light
B21: CE115HA000 Y100V one-arm antibody (antibody, human IgG1, kappa, L234A L235A, N297A, name in Kabat numbering)
heavy: B1 heavy with K61Y, Y106V
chain: B1 chain
light: B1 light
B22: CE115HA000 Y58N one-arm antibody (antibody, human IgG1, kappa, L234A L235A, N297A, name in Kabat numbering)
heavy: B1 heavy with K61N
chain: B1 chain
light: B1 light
B23: CE115HA000 Y59A one-arm antibody (antibody, human IgG1, kappa, L234A L235A, N297A, name in Kabat numbering)
heavy: B1 heavy with K61Y, Y62A
chain: B1 chain
light: B1 light
B24: CE115HA000 Y100W one-arm antibody (antibody, human IgG1, kappa, L234A L235A, N297A, name in Kabat numbering)
heavy: B1 heavy with K61Y, Y106W
chain: B1 chain
light: B1 light
B25: CE115HA000 Y100aD one-arm antibody (antibody, human IgG1, kappa, L234A L235A, N297A, name in Kabat numbering)
heavy: B1 heavy with K61Y, Y107D
chain: B1 chain
light: B1 light
B26: CE115HA000 Y97G one-arm antibody (antibody, human IgG1, kappa, L234A L235A, N297A, name in Kabat numbering)
heavy: B1 heavy with K61Y, Y103G
chain: B1 chain
light: B1 light
B27: CE115HA000 Y100G one-arm antibody (antibody, human IgG1, kappa, L234A L235A, N297A, name in Kabat numbering)
heavy: B1 heavy with K61Y, Y106G
chain: B1 chain
light: B1 light
B28: CE115HA000 Y97A one-arm antibody (antibody, human IgG1, kappa, L234A L235A, N297A, name in Kabat numbering)
heavy: B1 heavy with K61Y, Y103A
chain: B1 chain
light: B1 light
B29: CE115HA000 Y58Q one-arm antibody (antibody, human IgG1, kappa, L234A L235A, N297A, name in Kabat numbering)
heavy: B1 heavy with K61Q
chain: B1 chain
light: B1 light
B30: CE115HA000 Y97P one-arm antibody (antibody, human IgG1, kappa, L234A L235A, N297A, name in Kabat numbering)
heavy: B1 heavy with K61Y, Y103P
chain: B1 chain
light: B1 light
B31: CE115HA000 Y100aF one-arm antibody (antibody, human IgG1, kappa, L234A L235A, N297A, name in Kabat numbering)
heavy: B1 heavy with K61Y, Y107F
chain: B1 chain
light: B1 light

What follows are binders tested against T1, CD3ε homodimer protein (human, UniProt P07766 23-126, limits assumed, sulfo-tag or biotin label in the ECL assays; amine-coupled to the chip in SPR) (assay: SPR Biacore T200; CD3ε homodimer on CM4 chip;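 further: Single-residue variant antibodies injected as analyte over CD3ε homodimer immobilized by amine coupling, run at 25 °C in HBS-EP+ buffer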).
T1 construct: also called human CD3ε homodimer protein; CD3 (CD3ε)
T1 sequence (P07766 23-126 limits assumed): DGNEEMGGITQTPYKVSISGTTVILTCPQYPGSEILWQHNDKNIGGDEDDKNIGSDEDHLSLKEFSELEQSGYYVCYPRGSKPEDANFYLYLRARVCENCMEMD

Point of comparison: B28, “ratio of amounts bound Z=Y/X (altered form / CE115HA000)” value 0.16. Against it:
- B1 — higher, 0.3
- B2 — higher, 0.18
- B3 — higher, 0.86
- B4 — higher, 1.07
- B5 — higher, 0.8
- B6 — higher, 0.62
- B7 — higher, 0.94
- B8 — higher, 0.24
- B9 — higher, 0.7
- B10 — higher, 0.27
- B11 — higher, 0.48
- B12 — higher, 0.81
- B13 — higher, 1.23
- B14 — higher, 0.48
- B15 — higher, 0.52
- B16 — higher, 0.9
- B17 — higher, 0.9
- B18 — higher, 0.7
- B19 — higher, 0.18
- B20 — higher, 0.27
- B21 — higher, 0.6
- B22 — higher, 0.33
- B23 — higher, 0.85
- B24 — higher, 1.03
- B25 — higher, 0.31
- B26 — higher, 0.18
- B27 — higher, 1.07
- B29 — higher, 0.19
- B30 — lower, 0.11
- B31 — higher, 0.87
